Assay results as given in paper PMC7774078.

Substrate: NS(=O)(=O)c1cc(C(=O)O)c(NCc2ccco2)cc1Cl
Experiment: cells, lysate or membranes
Settings: ATP, Mg2+

B1: multidrug resistance-associated protein 4 (MRP4) (Homo sapiens) (protein)
chain: MLPVYQEVKPNPLQDANLCSRVFFWWLNPLFKIGHKRRLEEDDMYSVLPEDRSQHLGEELQGFWDKEVLRAENDAQKPSLTRAIIKCYWKSYLVLGIFTLIEESAKVIQPIFLGKIINYFENYDPMDSVALNTAYAYATVLTFCTLILAILHHLYFYHVQCAGMRLRVAMCHMIYRKALRLSNMAMGKTTTGQIVNLLSNDVNKFDQVTVFLHFLWAGPLQAIAVTALLWMEIGISCLAGMAVLIILLPLQSCFGKLFSSLRSKTATFTDARIRTMNEVITGIRIIKMYAWEKSFSNLITNLRKKEISKILRSSCLRGMNLASFFSASKIIVFVTFTTYVLLGSVITASRVFVAVTLYGAVRLTVTLFFPSAIERVSEAIVSIRRIQTFLLLDEISQRNRQLPSDGKKMVHVQDFTAFWDKASETPTLQGLSFTVRPGELLAVVGPVGAGKSSLLSAVLGELAPSHGLVSVHGRIAYVSQQPWVFSGTLRSNILFGKKYEKERYEKVIKACALKKDLQLLEDGDLTVIGDRGTTLSGGQKARVNLARAVYQDADIYLLDDPLSAVDAEVSRHLFELCICQILHEKITILVTHQLQYLKAASQILILKDGKMVQKGTYTEFLKSGIDFGSLLKKDNEESEQPPVPGTPTLRNRTFSESSVWSQQSSRPSLKDGALESQDTENVPVTLSEENRSEGKVGFQAYKNYFRAGAHWIVFIFLILLNTAAQVAYVLQDWWLSYWANKQSMLNVTVNGGGNVTEKLDLNWYLGIYSGLTVATVLFGIARSLLVFYVLVNSSQTLHNKMFESILKAPVLFFDRNPIGRILNRFSKDIGHLDDLLPLTFLDFIQTLLQVVGVVSVAVAVIPWIAIPLVPLGIIFIFLRRYFLETSRDVKRLESTTRSPVFSHLSSSLQGLWTIRAYKAEERCQELFDAHQDLHSEAWFLFLTTSRWFAVRLDAICAMFVIIVAFGSLILAKTLDAGQVGLALSYALTLMGMFQWCVRQSAEVENMMISVERVIEYTDLEKEAPWEYQKRPPPAWPHEGVIIFDNVNFMYSPGGPLVLKHLTALIKSQEKVGIVGRTGAGKSSLISALFRLSEPEGKIWIDKILTTEIGLHDLRKKMSIIPQEPVLFTGTMRKNLDPFNEHTDEELWNALQEVQLKETIEDLPGKMDTELAESGSNFSVGQRQLVCLARAILRKNQILIIDEATANVDPRTDELIQKKIREKFAHCTVLTIAHRLNTIIDSDKIMVLDSGRLKEYDEPYVLLQNKESLFYKMVQQLGKAEAAALTETAKQVYFKRNYPHIGHTDHMVTNTSNGQPSTLTIFETAL
Km: 27.96 µM
